Key:
[1] = PET hydrolysis product formed (TPA+MHET+BHET, UV-Vis) per mg enzyme (mmol/mg enzyme); higher = more PET depolymerisation activity; extreme values may be limits of the assay; conditions: 2 h
Experimental: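 Purified PET hydrolases (His-SUMO cleaved, E. coli C41(DE3) small-scale expression), 2.5 ug enzyme on 3.5 mg amorphous PET film (aFilm) or crystalline PET powder (cryPow) in 0.5 mL of 50 mM buffer (NaCitrate pH 4.5/5.5, NaPhosphate 6.5/7.5, glycine 8.5/9.5) at 60 or 70 C with shaking for 2 h. Soluble aromatic products (TPA+MHET+BHET) were quantified by UV-Vis at 260/280 nm, blank-subtracted against the no-enzyme control, and normalised per mg enzyme; duplicate reactions.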

[2] = BHET released, HPLC; higher = more BHET released; extreme values may be limits of the assay; conditions: 24 h
Experimental: (§1)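 Purified PET hydrolases, 2.5 ug enzyme on 3.5 mg amorphous PET film (aFilm) or crystalline PET powder (cryPow) in 0.5 mL of 50 mM buffer (NaCitrate pH 4.5/5.5, NaPhosphate 6.5/7.5, glycine 8.5/9.5) at 60 or 70 C with shaking for 24 h. Total aromatic product by UV-Vis (260/280 nm, blank-subtracted, normalised per mg enzyme) and individual TPA, MHET, BHET concentrations by UHPLC-DAD at 240 nm; duplicate reactions.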

[3] = terephthalic acid (TPA) released, HPLC; higher = more TPA released; extreme values may be limits of the assay; conditions: 24 h
Experimental: as §1

[4] = MHET released, HPLC; higher = more MHET released; extreme values may be limits of the assay; conditions: 24 h
Experimental: as §1

QTNPYARGPNPTAASLEASAGPFTVRSFTVARPVGYGAGTVYYPTNAGGTVGAIAIVPGYTATQSSINWWGPRLASHGFVVITIDTNSTLDKPESRSSQQMAALRQVASLNGTSSSPIYGKVDTARGGVMGWSMGGGGSLISAANNPSLKAAAVMAPWHSSTNFSSVTVPTLIFACENDRIAPVKEYALPIYDSMSLNAKQFLEICGGSHSCACSGNSNQALIGMKGVAWMKRFMDNDTRYSQFACENPNSTAVCDFRTANCS [HotPETase]
Conditions	BHET released, [2] [mM]	MHET released, [4] [mM]	PET hydrolysis product formed, [1]	terephthalic acid, [3] [mM]
PET substrate: aFilm, 60 °C, pH 4.5	0	0	0	0
PET substrate: aFilm, 60 °C, pH 5.5	0	0.282	0	0.359
PET substrate: aFilm, 60 °C, pH 6.5	0	0.534	0.0257	0.226
PET substrate: aFilm, 60 °C, pH 7.5	0.045	3.07	0.0712	1.04
PET substrate: aFilm, 60 °C, pH 8.5	0	0.303	0.0455	0.135
PET substrate: aFilm, 60 °C, pH 9.5	0	1.8	0.0961	1.35
PET substrate: aFilm, 70 °C, pH 4.5	0	0	0	0
PET substrate: aFilm, 70 °C, pH 5.5	0	0	0	0.00384
PET substrate: aFilm, 70 °C, pH 6.5	0	0.0858	0.00383	0.0729
PET substrate: aFilm, 70 °C, pH 7.5	0	0.198	0.0174	0.17
PET substrate: aFilm, 70 °C, pH 8.5	0	0.121	0.0193	0.0776
PET substrate: aFilm, 70 °C, pH 9.5	0	0.077	0.092	0.684
PET substrate: cryPow, 60 °C, pH 4.5	0	0	0.00338	0.0209
PET substrate: cryPow, 60 °C, pH 5.5	0.0125	0.43	0.0775	0.1228
PET substrate: cryPow, 60 °C, pH 6.5	0.00555	0.527	0.106	0.157
PET substrate: cryPow, 60 °C, pH 7.5	0	0.655	0.131	0.3121
PET substrate: cryPow, 60 °C, pH 8.5	0	0.319	0.0736	0.211
PET substrate: cryPow, 60 °C, pH 9.5	0	0.174	0.0954	0.681
PET substrate: cryPow, 70 °C, pH 4.5	0	0	0	0
PET substrate: cryPow, 70 °C, pH 5.5	0	0.163	0.05472	0.07122
PET substrate: cryPow, 70 °C, pH 6.5	0.00798	0.386	0.0748	0.118
PET substrate: cryPow, 70 °C, pH 7.5	0	0.249	0.109	0.262
PET substrate: cryPow, 70 °C, pH 8.5	0	0.268	0.0678	0.113
PET substrate: cryPow, 70 °C, pH 9.5	0	0.0221	0.0796	0.489

QTNPYARGPNPTAASLEASAGPFTVRSFTVSRPSGYGAGTVYYPTNAGGTVGAIAIVPGYTARQSSIKWWGPRLASHGFVVITIDTNSTFDYPSSRSSQQMAALRQVASLNGDSSSPIYGKVDTARMGVMGHSMGGGASLRSAANNPSLKAAIPQAPWDSQTNFSSVTVPTLIFACENDSIAPVNSHALPIYDSMSRNAKQFLEINGGSHSCANSGNSNQALIGKKGVAWMKRFMDNDTRYSTFACENPNSTAVSDFRTANCS [DuraPETase]
Conditions	BHET released, [2] [mM]	MHET released, [4] [mM]	PET hydrolysis product formed, [1]	terephthalic acid, [3] [mM]
PET substrate: aFilm, 60 °C, pH 4.5	0	0	0	0.00462
PET substrate: aFilm, 60 °C, pH 5.5	0	0	0	0
PET substrate: aFilm, 60 °C, pH 6.5	0	0	0	0
PET substrate: aFilm, 60 °C, pH 7.5	0.0050186	0.182	0	0.102
PET substrate: aFilm, 60 °C, pH 8.5	0	0.099	0	0.0886
PET substrate: aFilm, 60 °C, pH 9.5	0	0.152	0.0223	0.344
PET substrate: aFilm, 70 °C, pH 4.5	0	0	0	0
PET substrate: aFilm, 70 °C, pH 5.5	0	0	0	0
PET substrate: aFilm, 70 °C, pH 6.5	0	0	0	0
PET substrate: aFilm, 70 °C, pH 7.5	0	0.00907	0	0.0128
PET substrate: aFilm, 70 °C, pH 8.5	0	0.00981	0	0.0158
PET substrate: aFilm, 70 °C, pH 9.5	0	0	0.0191	0.0892
PET substrate: cryPow, 60 °C, pH 4.5	0	0	0	0
PET substrate: cryPow, 60 °C, pH 5.5	0	0	0	0
PET substrate: cryPow, 60 °C, pH 6.5	0	0.0436	0	0.00832
PET substrate: cryPow, 60 °C, pH 7.5	0.00475	0.21	0.0496	0.0835
PET substrate: cryPow, 60 °C, pH 8.5	0	0.169	0.032	0.0926
PET substrate: cryPow, 60 °C, pH 9.5	0	0.123	0.0701	0.384
PET substrate: cryPow, 70 °C, pH 4.5	0	0	0	0
PET substrate: cryPow, 70 °C, pH 5.5	0	0	0	0
PET substrate: cryPow, 70 °C, pH 6.5	0	0.0107	0	0
PET substrate: cryPow, 70 °C, pH 7.5	0	0.0884	0.0447	0.12
PET substrate: cryPow, 70 °C, pH 8.5	0	0.0546	0.0151	0.0557
PET substrate: cryPow, 70 °C, pH 9.5	0	0	0.0191	0.0155

SNPYQRGPNPTRSALTADGPFSVATYTVSRLSVSGFGGGVIYYPTGTSLTFGGIAMSPGYTADASSLAWLGRRLASHGFVVLVINTNSRFDGPDSRASQLSAALNYLRTSDPSAVRARLDANRLAVAGHSMGGGATLRIAEQNPSLKAAIPLTPWHTQKTFNTSVPVLIVGAEADTVAPVSQHAIPFYQNLPSTTPKVYVELCNASHIAPNSNNAAISVYTISWMKLWVDNDTRYRQFLCNVNDPALCDFRTNNRHCQ [LCC-ICCG DAQI]
Conditions	BHET released, [2] [mM]	MHET released, [4] [mM]	PET hydrolysis product formed, [1]	terephthalic acid, [3] [mM]
PET substrate: aFilm, 60 °C, pH 4.5	0	0.0359	0	0.0488
PET substrate: aFilm, 60 °C, pH 5.5	0.0132	0.267	0.02083	0.279
PET substrate: aFilm, 60 °C, pH 6.5	0	0.562	0.0428	0.541
PET substrate: aFilm, 60 °C, pH 7.5	0.0548	3.69	0.0608	3.26
PET substrate: aFilm, 60 °C, pH 8.5	0.00252	0.3306	0.0525	0.517
PET substrate: aFilm, 60 °C, pH 9.5	0.0577	2.09	0.0903	1.99
PET substrate: aFilm, 70 °C, pH 4.5	0	0	0	0
PET substrate: aFilm, 70 °C, pH 5.5	0.0149	0.189	0.0394	0.1646
PET substrate: aFilm, 70 °C, pH 6.5	0.00777	0.371	0.0829	0.296
PET substrate: aFilm, 70 °C, pH 7.5	0.143	4.52	0.189	2.26
PET substrate: aFilm, 70 °C, pH 8.5	0	0.211	0.0593	0.205
PET substrate: aFilm, 70 °C, pH 9.5	0	1.54	0.241	1.45
PET substrate: cryPow, 60 °C, pH 4.5	0	0.033	0	0.0214
PET substrate: cryPow, 60 °C, pH 5.5	0.00665	0.189	0.0387	0.0856
PET substrate: cryPow, 60 °C, pH 6.5	0	0.254	0.0449	0.0997
PET substrate: cryPow, 60 °C, pH 7.5	0	0.437	0.0986	0.216
PET substrate: cryPow, 60 °C, pH 8.5	0	0.197	0.0373	0.103
PET substrate: cryPow, 60 °C, pH 9.5	0	0.155	0.0245	0.441
PET substrate: cryPow, 70 °C, pH 4.5	0	0	0	0
PET substrate: cryPow, 70 °C, pH 5.5	0	0.0777	0.0166	0.04158
PET substrate: cryPow, 70 °C, pH 6.5	0.00289	0.167	0.0286	0.0736
PET substrate: cryPow, 70 °C, pH 7.5	0	0.424	0.0606	0.401
PET substrate: cryPow, 70 °C, pH 8.5	0	0.164	0.0323	0.0916
PET substrate: cryPow, 70 °C, pH 9.5	0	0.0936	0.0462	0.659

SNPYQRGPNPTRSALTADGPFSVATYTVSRLSVSGFGGGVIYYPTGTSLTFGGIAMSPGYTADASSLAWLGRRLASHGFVVLVINTNSRFDGPDSRASQLSAALNYLRTSSPSAVRARLDANRLAVAGHSMGGGGTLRIAEQNPSLKAAVPLTPWHTDKTFNTSVPVLIVGAEADTVAPVSQHAIPFYQNLPSTTPKVYVELCNASHIAPNSNNAAISVYTISWMKLWVDNDTRYRQFLCNVNDPALCDFRTNNRHCQ [LCC-ICCG]
Conditions	BHET released, [2] [mM]	MHET released, [4] [mM]	PET hydrolysis product formed, [1]	terephthalic acid, [3] [mM]
PET substrate: aFilm, 60 °C, pH 4.5	0	0.00708	0	0.0137
PET substrate: aFilm, 60 °C, pH 5.5	0.00902	0.284	0.0182	0.309
PET substrate: aFilm, 60 °C, pH 6.5	0.0136	0.773	0.0377	0.78
PET substrate: aFilm, 60 °C, pH 7.5	0.0155	3.92	0.0795	3.41
PET substrate: aFilm, 60 °C, pH 8.5	0	0.271	0.0461	0.472
PET substrate: aFilm, 60 °C, pH 9.5	0.039	2.19	0.0968	2.3
PET substrate: aFilm, 70 °C, pH 4.5	0	0	0	0
PET substrate: aFilm, 70 °C, pH 5.5	0.00749	0.246	0.0371	0.25
PET substrate: aFilm, 70 °C, pH 6.5	0	0.356	0.0873	0.362
PET substrate: aFilm, 70 °C, pH 7.5	0.0808	4.35	0.226	2.48
PET substrate: aFilm, 70 °C, pH 8.5	0	0.221	0.0682	0.287
PET substrate: aFilm, 70 °C, pH 9.5	0	1.87	0.252	1.72
PET substrate: cryPow, 60 °C, pH 4.5	0	0.0148	0	0.0129
PET substrate: cryPow, 60 °C, pH 5.5	0.00462	0.203	0.0406	0.0979
PET substrate: cryPow, 60 °C, pH 6.5	0	0.27	0.045	0.113
PET substrate: cryPow, 60 °C, pH 7.5	0	0.507	0.0768	0.308
PET substrate: cryPow, 60 °C, pH 8.5	0	0.198	0.0339	0.121
PET substrate: cryPow, 60 °C, pH 9.5	0	0.165	0.0379	0.516
PET substrate: cryPow, 70 °C, pH 4.5	0	0	0	0
PET substrate: cryPow, 70 °C, pH 5.5	0	0.1	0.0205	0.0559
PET substrate: cryPow, 70 °C, pH 6.5	0.0013	0.208	0.0349	0.0977
PET substrate: cryPow, 70 °C, pH 7.5	0	0.433	0.0598	0.409
PET substrate: cryPow, 70 °C, pH 8.5	0	0.173	0.0285	0.111
PET substrate: cryPow, 70 °C, pH 9.5	0	0.1	0.0357	0.682

From the supplement of paper PMC11196671
